Values of other authors, collected in paper PMC3899951.

Tests used:
[1] = target: histone H4 K5,8,12,16ac peptide (Homo sapiens) (UniProt P62805)
[2] = target: histone H4 singly acetylated peptide (Homo sapiens) (UniProt P62805)

- Kd [1]: 5 µM
- Kd [2]: 39 µM
Substance: TAFII250 tandem bromodomain (from UniProt P21675)
